In general, EC50 (read off the curve) refers to the concentration that produces a half-maximal response. Read a high EC50 (read off the curve) as weaker potency. As a reminder, the Kd is the free concentration of one partner at which half of the binding sites on the other are occupied at equilibrium, for simple one-to-one binding. As a reminder, the koff is the first-order rate constant of dissociation. A word on the kon: it is the rate constant with which the complex forms.

Substitutions are numbered along the chain they refer to.

16 molecules from patent US20250136682A1 (ACADEMIA SINICA, published 2025) can be followed below.

Assay [1] addresses T1, human Siglec-3 (CD33) on cells (human, UniProt P20138 18-364).
T1 construct: whole, on cells; also called human endogenous or exogenous Siglec-3
In words: flow cytometry, APC-conjugated antibody titrated on human monocytes (endogenous Siglec-3). How it is done: (§1) For establishment of titration curves, human monocytes and moDCs (3×10⁴) were incubated with the indicated concentrations of the APC-conjugated anti-Siglec-3 antibodies 4H3-3A, 10C8, as well as hIgG1 control, and analyzed by a flow cytometry instrument (FACSVerse; BD Biosciences). Mean fluorescence intensity (MFI) was analyzed by a software FlowJo (TreeStar, Inc.).
(Flow cytometry measures light scatter and fluorescence of single cells or particles in a stream.)

For assay [2], the target named is T1, human Siglec-3 (CD33) on cells. As to the kind of experiment: flow cytometry, APC-conjugated antibody titrated on human monocyte-derived dendritic cells (endogenous Siglec-3). The protocol:
as §1

In assay [3] the target is T2, human CD33.Fc (recombinant extracellular domain of human Siglec-3 fused with Fc portion of hIgG1) (human, UniProt P20138 18-259).
T2 construct: extracellular domain; also called Siglec-3.Fc; not shown: Fc portion of human IgG1
T2 sequence (P20138 18-259): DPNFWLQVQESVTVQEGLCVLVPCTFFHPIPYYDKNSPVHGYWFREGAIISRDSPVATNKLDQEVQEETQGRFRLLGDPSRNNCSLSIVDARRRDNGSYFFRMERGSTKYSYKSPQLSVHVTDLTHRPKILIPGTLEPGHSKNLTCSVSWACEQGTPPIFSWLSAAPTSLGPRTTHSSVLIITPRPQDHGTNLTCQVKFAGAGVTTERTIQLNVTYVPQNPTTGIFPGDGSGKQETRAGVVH
In words: SPR (BIAcore 2000), human CD33.Fc immobilized on CM5 chip. The protocol:
Human IgG1 was first mobilized on channel one of a CM5 chip as the blank to determine the bulk effect of injection itself, whereas human CD33.Fc were immobilized on channel two for analysis of its kinetic interaction with wild various clones of anti-CD33 mAbs, respectively. The interaction between […] and anti-CD33 mAbs was determined by surface plasmon resonance using a Biacore instrument (BIAcore 2000).

For assay [4], the target named is T3, mouse Siglec-3 expressed in HEK-293T cells (mouse, UniProt Q63994 17-403).
T3 construct: whole, on cells
T3 sequence (looked up): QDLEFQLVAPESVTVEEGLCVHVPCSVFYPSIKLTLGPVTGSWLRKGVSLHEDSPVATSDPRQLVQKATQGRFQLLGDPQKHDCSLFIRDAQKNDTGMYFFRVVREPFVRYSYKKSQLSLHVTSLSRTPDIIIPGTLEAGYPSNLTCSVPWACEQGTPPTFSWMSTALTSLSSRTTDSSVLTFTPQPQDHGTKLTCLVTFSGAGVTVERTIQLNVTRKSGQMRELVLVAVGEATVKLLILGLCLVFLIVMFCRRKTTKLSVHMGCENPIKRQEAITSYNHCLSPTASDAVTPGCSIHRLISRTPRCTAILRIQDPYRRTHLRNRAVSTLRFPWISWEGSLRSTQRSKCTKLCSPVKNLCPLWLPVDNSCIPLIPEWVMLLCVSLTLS
In words: flow cytometry, antibody titrated on HEK-293T cells expressing exogenous mouse Siglec-3.

The target of assay [5] is T1, human Siglec-3 (CD33) on cells. As to the kind of experiment: flow cytometry on moDCs (data not shown).

T1 sequence (P20138 18-364): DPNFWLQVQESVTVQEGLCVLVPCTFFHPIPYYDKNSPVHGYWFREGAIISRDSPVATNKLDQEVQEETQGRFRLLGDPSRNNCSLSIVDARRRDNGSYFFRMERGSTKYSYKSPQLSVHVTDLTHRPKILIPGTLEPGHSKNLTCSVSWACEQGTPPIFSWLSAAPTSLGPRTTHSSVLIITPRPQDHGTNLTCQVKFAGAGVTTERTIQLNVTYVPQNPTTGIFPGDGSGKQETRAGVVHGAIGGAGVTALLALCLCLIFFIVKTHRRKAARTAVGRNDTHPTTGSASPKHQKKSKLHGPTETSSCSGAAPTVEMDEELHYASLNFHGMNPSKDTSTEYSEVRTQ

B1: 1H3-3A (antibody, human IgG1, kappa)
light chain: DGTDIQMTQSPSSLSASVGDRVTITCRASQDVYGYVAWYQQKPGKAPKLLISYTPGLYSGVPSRFSGSGSGTDFTLTISSLQPEDFATYYCQQYYDFPITFGQGTKVEIKRTVAAPSVFIFPPSDEQLKSGTASVVCLLNNFYPREAKVQWKVDNALQSGNSQESVTEQDSKDSTYSLSSTLTLSKADYEKHKVYACEVTHQGLSSPVTKSFNRGEC
heavy chain: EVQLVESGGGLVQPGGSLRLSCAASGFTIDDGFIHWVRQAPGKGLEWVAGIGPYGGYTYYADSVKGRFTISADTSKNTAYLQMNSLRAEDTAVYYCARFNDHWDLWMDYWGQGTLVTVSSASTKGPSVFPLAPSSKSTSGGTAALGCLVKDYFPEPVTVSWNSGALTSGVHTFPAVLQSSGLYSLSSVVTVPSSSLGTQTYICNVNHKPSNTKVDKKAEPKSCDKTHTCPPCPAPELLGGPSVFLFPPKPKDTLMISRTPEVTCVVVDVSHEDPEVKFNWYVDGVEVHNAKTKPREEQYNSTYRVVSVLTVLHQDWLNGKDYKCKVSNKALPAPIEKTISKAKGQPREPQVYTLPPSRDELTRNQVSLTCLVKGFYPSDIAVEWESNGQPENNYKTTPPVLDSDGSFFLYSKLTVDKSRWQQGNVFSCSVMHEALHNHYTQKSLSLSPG
In the case of B1, the “EC50 (read off the curve)” value was approximately 100 nM in assay [1] and approximately 30 nM in assay [2].

B2: anti-Siglec-3 antibody 4H3-3A (scFv clone H3-3A reformatted into hIgG4) (antibody)
heavy: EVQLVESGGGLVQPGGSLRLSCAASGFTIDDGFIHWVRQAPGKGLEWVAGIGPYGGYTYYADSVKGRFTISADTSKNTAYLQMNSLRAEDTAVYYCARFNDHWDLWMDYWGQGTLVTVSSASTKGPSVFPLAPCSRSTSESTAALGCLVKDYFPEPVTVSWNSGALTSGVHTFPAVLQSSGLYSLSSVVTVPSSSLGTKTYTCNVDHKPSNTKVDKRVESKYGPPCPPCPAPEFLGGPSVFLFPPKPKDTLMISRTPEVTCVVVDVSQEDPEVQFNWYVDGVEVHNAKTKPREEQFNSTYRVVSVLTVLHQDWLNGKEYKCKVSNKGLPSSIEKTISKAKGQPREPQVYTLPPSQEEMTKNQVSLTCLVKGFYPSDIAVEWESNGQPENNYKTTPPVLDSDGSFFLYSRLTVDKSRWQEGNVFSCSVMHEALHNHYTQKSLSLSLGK
light: B1 light chain
notes: Human IgG4 format
Consider B2, for which, in assay [3], the Kd is 8.88 nM, the koff came out at 0.0373 s⁻¹ and the kon was 4.21e+06 M⁻¹ s⁻¹. The binding result in assay [4] is given as “no binding”.

B3: anti-Siglec-3 antibody 10C8 (antibody, V domains shown)
VH: EVQLVESGGGLVQPGGSLRLSCAASGFTINNGWIHWVRQAPGKGLEWVAGIGPYGGSTFYADSVKGRFTISADTSKNTAYLQMNSLRAEDTAVYYCSRFIGSYSHMDYWGQGTLVTVSS
VL: DIQMTQSPSSLSASVGDRVTITCRASQDVYYYVAWYQQKPGKAPKLLISSAGGLYSGVPSRFSGSGSGTDFTLTISSLQPEDFATYYCQQYFNFPLTFGQGTKVEIKR
For the molecule B3, the “EC50 (read off the curve)” value in assay [1] was approximately 200 nM.

B4: anti-Siglec-3 antibody S3H1-85 reformatted into human IgG1 or IgG4 (antibody, V domains shown)
VH: VQLVESGGGLVQPGGSLRLSCAASGFTIGSGWIHWVRQAPGKGLEWVAGIGPYGGYTYYADSVKGRFTISADTSKNTAYLQMNSLRAEDTAVYYCARFNDHWDLWMDYWGQGTLVTVSS
VL: B3 VL with Y31G, S50Y, A51T, G52P, F92Y, N93D, L96I
notes: also called 1S3H1-85; 4S3H1-85
Regarding B4, the binding result in assay [5] is recorded as “binds”.

B5: anti-Siglec-3 antibody S3H1-74 reformatted into human IgG1 or IgG4 (antibody, V domains shown)
VH: B4 VH with G29H, S30G, G31S
VL: B3 VL with Y31G, S50Y, A51T, G52P, F92Y, N93D, L96I
notes: also called 1S3H1-74; 4S3H1-74
For B5, in assay [5], the binding result is given as “binds”.

B6: anti-Siglec-3 antibody S3PL3-46 reformatted into human IgG1 or IgG4 (antibody, V domains shown)
VH: B4 VH with G29D, S30D, W32F
VL: B3 VL with Y31G, S50Y, A51T, G52P, F92S, N93R, F94M, L96I
notes: also called 1S3PL3-46; 4S3PL3-46
Take B6: the binding result in assay [5] is given as “binds”.

B7: anti-Siglec-3 antibody H3-10E reformatted into human IgG1 or IgG4 (antibody, V domains shown)
VH: B4 VH with G29D, S30D, W32F, N99Q, D100N, H101S, W102P, D103T, L104K, W105T
VL: B3 VL with Y31G, S50Y, A51T, G52P, F92Y, N93D, L96I
notes: also called 1H3-10E; 4H3-10E
For the molecule B7, the binding result in assay [5] is on record as “binds”.

B8: anti-Siglec-3 antibody S3H2-12 reformatted into human IgG1 or IgG4 (antibody, V domains shown)
VH: B4 VH with G29D, S30D, W32F, G49T, G51S, Y53N, G54T, Y56H, Y58N
VL: B3 VL with Y31G, S50Y, A51T, G52P, F92Y, N93D, L96I
notes: also called 1S3H2-12; 4S3H2-12
B8: the binding result in assay [5] is “binds”.

B9: anti-Siglec-3 antibody S3H1-76 reformatted into human IgG1 or IgG4 (antibody, V domains shown)
VH: B4 VH with G29S, G31S, W32Y
VL: B3 VL with Y31G, S50Y, A51T, G52P, F92Y, N93D, L96I
notes: also called 1S3H1-76; 4S3H1-76
Take B9: the binding result in assay [5] is “binds”.

B10: anti-Siglec-3 antibody H3-9E reformatted into human IgG1 or IgG4 (antibody, V domains shown)
VH: B4 VH with G29D, S30D, W32F, N99G, D100H, H101P, W102P, D103Y, L104D, W105Y
VL: B3 VL with Y31G, S50Y, A51T, G52P, F92Y, N93D, L96I
notes: also called 1H3-9E; 4H3-9E
With B10, in assay [5], the binding result is given as “binds”.

B11: anti-Siglec-3 antibody H3-8F reformatted into human IgG1 or IgG4 (antibody, V domains shown)
VH: B4 VH with G29D, S30D, W32F, N99R, H101T, W102Q, D103S, L104Q, W105T
VL: B3 VL with Y31G, S50Y, A51T, G52P, F92Y, N93D, L96I
notes: also called 1H3-8F; 4H3-8F
For B11, the binding result in assay [5] is “binds”.

B12: anti-Siglec-3 antibody S3H1-29 reformatted into human IgG1 or IgG4 (antibody, V domains shown)
VH: B4 VH with G29H, S30G, G31S, W102Q
VL: B3 VL with Y31G, S50Y, A51T, G52P, F92Y, N93D, L96I
notes: also called 1S3H1-29; 4S3H1-29
In the case of B12, in assay [5], the binding result is listed as “binds”.

B13: anti-Siglec-3 antibody H3-7G reformatted into human IgG1 or IgG4 (antibody, V domains shown)
VH: B4 VH with G29D, S30D, W32F, N99R, H101D, W102K, D103P, L104Q, W105M
VL: B3 VL with Y31G, S50Y, A51T, G52P, F92Y, N93D, L96I
notes: also called 1H3-7G; 4H3-7G
For B13, in assay [5], the binding result was “binds”.

B14: anti-Siglec-3 antibody H3-10F reformatted into human IgG1 or IgG4 (antibody, V domains shown)
VH: B4 VH with G29D, S30D, W32F, N99A, D100T, W102D, D103Q, L104P, W105L
VL: B3 VL with Y31G, S50Y, A51T, G52P, F92Y, N93D, L96I
notes: also called 1H3-10F; 4H3-10F
On to B14, for which the binding result in assay [5] was “binds”.

B15: anti-Siglec-3 antibody S3H2-8 reformatted into human IgG1 or IgG4 (antibody, V domains shown)
VH: B4 VH with G29D, S30D, W32F, G49A, G51K, Y53R, G54Q, Y56D, Y58S
VL: B3 VL with Y31G, S50Y, A51T, G52P, F92Y, N93D, L96I
notes: also called 1S3H2-8; 4S3H2-8
Take B15: in assay [5], the binding result was “binds”.

B16: anti-Siglec-3 antibody S3H2-10 reformatted into human IgG1 or IgG4 (antibody, V domains shown)
VH: B4 VH with G29D, S30D, W32F, G49A, G51P, Y53L, G54Q, Y56K
VL: B3 VL with Y31G, S50Y, A51T, G52P, F92Y, N93D, L96I
notes: also called 1S3H2-10; 4S3H2-10
Consider B16, for which the binding result in assay [5] is on record as “binds”.
